Test results taken from patent US12564623B2, “Methods and compositions for treating cancer” (The University of Chicago, priority 2017, dated 2026).
Entries after “also recorded” stand apart in the source; their conditions may differ.

Key:
[1] = target: T1, CD95 (Homo sapiens, UniProt P25445); conditions: Strand et al., Oncogene, 2004; cited from earlier work
T1 sequence (P25445 26-335): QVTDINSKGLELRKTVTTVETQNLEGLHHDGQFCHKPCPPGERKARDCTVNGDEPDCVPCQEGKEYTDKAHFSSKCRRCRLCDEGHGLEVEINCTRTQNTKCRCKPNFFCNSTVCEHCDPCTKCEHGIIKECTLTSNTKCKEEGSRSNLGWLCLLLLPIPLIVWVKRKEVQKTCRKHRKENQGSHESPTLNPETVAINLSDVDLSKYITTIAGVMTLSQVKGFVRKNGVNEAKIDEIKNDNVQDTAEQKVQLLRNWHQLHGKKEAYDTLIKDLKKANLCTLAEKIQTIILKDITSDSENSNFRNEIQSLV

[2] = tested on: MDA-MB-231 cells; test: Cancer cell killing, Calcein AM staining; assay type: cell-based, human
Protocol: Approach to identify the factor(s) mediating selective killing. A quantitative cancer cell killing assay was developed to track the bioactive factor(s). MDA-MB-231 cells were treated with various doses of PMN media and cell viability was assessed by Calcein AM live cells fluorescence staining. […] (FIG. 3B) PMN media was passed through a 0.22 μm filter, and protein concentration and killing activity on MDA-MB-231 cancer cells was measured in both pre- and post-filter solutions. […] ELANE and ECP levels in PMN media pre- and post-filtration were quantified by mass spectrometry (spectral counts).
To determine if ELANE and/or ECP were responsible, the inventors (1) immuno-depleted ELANE or ECP from PMN media; (2) treated cancer or normal cells with purified native ELANE or ECP from commercial sources. (FIG. 6A) ELANE or ECP were depleted from PMN media by immunoprecipitation; depletion was confirmed by western blotting. PMN media pre-depletion=Orig. and post-depletion=FT. Non-specific IgG was used as a control. (FIG. 6B) MDA-MB-231 cells or human monocyte-derived macrophages (HMDMs) were treated with purified native ELANE or ECP at various doses for 24h, and killing was assessed by Calcein AM staining. (FIG. 6C) MDA-MB-231 cells and HMDMs were treated with levels of ELANE (0.25 μg/mL) or ECP (0.05 μg/mL) that were present in the PMN media, alone or in combination for 24 hrs, and killing was examined by Calcein AM staining.
High doses of ECP or ELANE can kill cancer cells. The inventors sought to determine whether adding purified human ECP (Lee Biosolutions), human ELANE (Abcam), human DEFA1 (Abcam), human ANXA6 (R&D Systems) or human CASP3 (Abcam) individually could kill cancer cells without killing non-cancer cells. Increasing doses of each protein were added to MDA-MB-231 cells for 5h or human monocyte-derived macrophages (HMDMs) for 24 h and cell viability was determined by Calcein-AM.
ELANE and ECP synergize to selectively kill cancer cells. MDA-MB-231 and human monocyte-derived macrophages (HMDMs) were treated with levels of ELANE (0.25 μg/mL) or ECP (0.05 μg/mL) that were present in the PMN media, alone or in combination for 24 hrs. killing was examined by Calcein AM staining.
Combining chemotherapeutics and neutrophil conditioned media enhances the killing of human triple negative breast cancer cells. MDA-MB-231 cells were treated with neutrophil conditioned media (Neu-CM; 4 μg/mL), doxorubicin (DOX; 0.3 μM), or paclitaxel (PTX; 3 nM) for 4h, individually or in combination, and cell viability was assessed by Calcein-AM.
(§1) Other serine proteases cleave the C-terminal domain of CD95, and the ability to cleave the C-terminal domain is associated with cancer cell killing. (FIG. 12A) Full length recombinanat CD95 protein was incubated with various serine proteases (human ELANE (80 nM), PR3 (80 nM), CSTG (80 nM), PPE (80 nM), mouse ELANE (80 nM), rat ELANE (500 nM), GZMB (80 nM), or Trypsin (250 nM)), or other types of proteases (CTSC (80 nM); or MMP7 (80 nM), MMP9 (80 nM), CTSD (80 nM) not shown) at 37° C. for 2 hours. Degradation was assessed by SDS-PAGE followed by coomassie blue staining. (FIG. 12B) MDA-MB-231 cancer cells were incubated with various proteases for 24 hrs. Cell viability was assessed by Calcein AM staining.
(FIG. 13A) MDA-MB-231 cancer cells were treated with various doses of purified native ELANE or purified native porcine pancreatic elastase (PPE) for 6 h, and killing was assessed by Calcein AM staining. (FIG. 13B). Purified native ELANE or purified native PPE was incubated with different concentrations of alpha-1-anti-trypsin (A1AT) for 15 mins. Catalytic activity was measured using a chromogenic substrate assay. Cancer cell killing capability was determined by treating MDA-MB-231 cancer cells with ELANE or PPE in the presence or absence of A1AT for 6h, followed by Calcein AM staining. (FIG. 13C) Catalytic activity was measured using a chromogenic substrate assay. […]

[3] = target: alpha-1-anti-trypsin (A1AT) (Homo sapiens, UniProt P01009); test: Inhibition of elastase activity and killing by A1AT or FBS; assay type: biochemical; conditions: 15 mins, killing 6 h
Protocol: (FIG. 13A) MDA-MB-231 cancer cells were treated with various doses of purified native ELANE or purified native porcine pancreatic elastase (PPE) for 6 h, and killing was assessed by Calcein AM staining. (FIG. 13B). Purified native ELANE or purified native PPE was incubated with different concentrations of alpha-1-anti-trypsin (A1AT) for 15 mins. Catalytic activity was measured using a chromogenic substrate assay. Cancer cell killing capability was determined by treating MDA-MB-231 cancer cells with ELANE or PPE in the presence or absence of A1AT for 6h, followed by Calcein AM staining. (FIG. 13C) Catalytic activity was measured using a chromogenic substrate assay. Cancer cell killing capability was determined by treating MDA-MB-231 cancer cells with ELANE or PPE in the presence or absence of FBS for 6 h, followed by Calcein AM staining.
Elastase activity for purified native ELANE or purified native PPE at various dose were measured. It's corresponding killing ability was also tested on MDA-MB-231 cancer cells. Killing was assessed 6 hrs after treatment by Calcein AM staining. […] Killing was assessed 6 hrs after treatment by Calcein AM staining. […] Killing was assessed 6 hrs after treatment by Calcein AM staining.

[4] = target: T1, CD95; test: Recombinant CD95 degradation, SDS-PAGE and coomassie blue; assay type: biochemical; set-up: Recombinant proteins (1 μg) corresponding to full length CD95 (FL-CD95); conditions: purified CD95
Protocol: ELANE lowers CD95 levels in cancer cells and reduced CD95 levels are associated with apoptosis. (FIG. 8A) Recombinant proteins (1 μg) corresponding to full length CD95 (FL-CD95), N-terminal domain of CD95 (amino acids 1-173; N-CD95), or C-terminal domain of CD95 (amino acids 157-320; C-CD95) were inbuated with ELANE (0.05 μg) or vehicle (Veh) for 2 hrs at 37° C. Degradation was assessed by SDS-PAGE followed by coomassie blue staining. […] (FIG. 8C) Cancer cells were treated with ELANE (50 nM) for 1 hr, fixed in 10% formalin, and stained with N- or C-terminal specific anti-CD95 antibodies (green). Hoechst 33342 solution was used for nuclear staining (blue). Images were taken under 40×.
ELANE selectively cleaves the C-terminal domain of CD95. The CD95 pathway is essential for the survival of a wide range of cancer cells, but largely dispensable for normal cell survival (Adachi et al., Nat. Genet., 1995; Karray et al., J. Immunol., 2004). CD95 function can be modulated by proteolysis (Strand et al., Oncogene, 2004). To test CD95 involvement in ELANE mediated cell killing ELANE (0.05 μg) was incubated with 1 μg recombinant human C-terminal (aa. 157-320) or N-terminal (aa. 1-173) CD95 for 2 hrs at 37° C. Degradation was assessed by SDS-PAGE followed by staining with coomassie blue. C-terminal domain cleavage. N-terminal domain cleavage. Cancer cells were treated with ELANE (50 nM) for 1 hr, fixed in 10% formalin, and stained with N- or C-terminal specific anti-CD95 antibodies. Hoechst 33342 solution was used for nuclear staining. Images were taken under 40×. […] Mel888 cancer cells were treated with ELANE (50 nM) for various times, and CD95 degradation was assessed by western blot analysis with a C-terminal specific anti-CD95 antibody.
as §1

alpha-1-anti-trypsin (A1AT), sequence (P01009 25-418, species assumed): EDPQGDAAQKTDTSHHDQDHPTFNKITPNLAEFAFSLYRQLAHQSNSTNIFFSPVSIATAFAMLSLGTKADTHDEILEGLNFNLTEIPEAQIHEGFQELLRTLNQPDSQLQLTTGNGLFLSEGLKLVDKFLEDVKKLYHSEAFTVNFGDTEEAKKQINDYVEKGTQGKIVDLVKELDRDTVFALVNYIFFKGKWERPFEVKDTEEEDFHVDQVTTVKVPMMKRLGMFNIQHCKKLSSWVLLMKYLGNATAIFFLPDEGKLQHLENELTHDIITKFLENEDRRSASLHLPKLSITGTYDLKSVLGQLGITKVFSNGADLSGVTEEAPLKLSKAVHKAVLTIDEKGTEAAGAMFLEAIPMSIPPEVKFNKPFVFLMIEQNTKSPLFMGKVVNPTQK

Substance | cleavage of CD95 [1] | cancer cell killing by proteases [2] | toxicity to cancer cells, ELANE versus PPE ([2]; various doses, 6 h) | susceptibility to inhibition by serine protease inhibitors [3] | cleavage of purified CD95 [4]
MMP7: protease previously shown to cleave the extracellular N-terminal domain of CD95 | cleave the extracellular N-terminal domain of CD95 | – | – | – | –
porcine pancreatic elastase [PPE] | – | killed cancer cells | equally toxic to cancer cells | more resistant to inhibition by serine protease inhibitors; also recorded: less susceptibility to alpha 1 anti-trypsin (A1AT) or serum blocking | cleaved purified CD95 with an identical degradation pattern to ELANE
